Measurements: article PMC10998878, “Inhibition of acyl-CoA binding protein (ACBP) by means of a GABAARγ2-derived peptide” (Cell Death & Disease, 2024)
Where no end group is shown, it is not given here.

Tests used:
Huh-7 cells = assay: WST-8 conversion (metabolic activation) by Huh-7 cells; assay type: cell-based, human; settings: for effect on RecACBP/DBI-stimulated WST-8 conversion: then RecACBP/DBI 4 h, n = 4
Experimental: Media and cell culture supplements were purchased from Gibco-Invitrogen (Carlsbad, CA, USA). Plasticware was purchased from Corning B.V. Life Sciences (Schiphol-Rijk, The Netherlands). Unless reported otherwise, the cell line used in this study was cultured at standard conditions (37 °C, 5% CO2, Dulbecco’s modified Eagle’s medium containing 10% fetal bovine serum, 10 mM HEPES buffer, 100 mg/L sodium pyruvate, 100 U/mL penicillin G sodium, and 100 µg/mL streptomycin sulfate). 2-deoxy-D-glucose (# D8375) and rotenone (# R8875) were purchased from Sigma (Burlington, MA, USA). Human hepatocellular carcinoma (Huh-7) cell line was used for in vitro experiments. Cells were plated in 6- or 96-well plates and grown for 24 h before treatments.
(§1) WST-8 conversion assays were conducted utilizing the Cell Counting Kit-8 (Sigma-Aldrich, #96992). Cells were seeded in a 96-well plate at a density of 3000 cells per well and incubated overnight for adherence. Then, the culture medium was removed, and fresh medium containing the specified treatments was added to the wells. Immediately following the addition of treatments, 10 μL of CCK-8 reagent was introduced to each well. Subsequently, the cells were incubated for 4.5 h at 37 °C to facilitate the conversion of WST-8 in response to cellular activity. Following the incubation period, the absorbance at 450 nm was quantified using a VICTOR® Nivo™ microplate reader. This measurement served as an indicator of WST-8 conversion, reflecting cellular metabolic activity.
Fig. 6 Inhibition of the metabolic effects of ACBP/DBI on hepatocytes by the GABAARγ2-derived eicosapeptide. A WST-8 conversion by murine primary hepatocytes treated with increasing concentrations of recombinant ACBP/DBI protein (RecACBP/DBI) for 4 h. Hepatocytes were isolated from tamoxifen-induced Acbp/Dbi f/f or Acbp/Dbi KO full-body genetic background mice (white- or blue-colored graphs respectively). […] For statistical analysis p values are calculated by one-way ANOVA. B WST-8 conversion by control (shUNR) and ACBP/DBI-knocked down (shACBP/DBI) human Huh-7 cells treated with increasing concentrations of RecACBP/DBI for 4 h. shUNR and shACBP/DBI cells are represented by white- or blue-colored graphs respectively. […] C WST-8 conversion by Huh-7 cells treated with RecACBP/DBI or negative control (4 h). Cells were pre-treated with 2-deoxy-D-glucose (2-Deoxy-D-glu; 300 µM) or vehicle (2 h). […] D WST-8 conversion by Huh-7 cells treated with RecACBP/DBI or negative control (4 h). Cells were pre-treated with rotenone (0.5 µM) or vehicle (2 h). […] E WST-8 conversion by Huh-7 cells treated with RecACBP/DBI or negative control (4 h). Prior to administration, RecACBP/DBI was overnight pre-incubated with monoclonal antibody (α-ACBP/DBI) or isotype IgG1. […] F WST-8 conversion by Huh-7 cells treated with RecACBP/DBI or negative control (4 h). Prior to administration, RecACBP/DBI was overnight pre-incubated with GABAARγ2 (WT or F77I-mutated) eicosapeptides.

[1] = system: native ACBP/DBI protein (mouse liver extracts); assay: Pull down / immunoprecipitation of native ACBP/DBI from liver extracts; assay type: binding; settings: mouse liver protein extract (500 μg), peptide-coated beads, overnight 4 °C, immunoblot for ACBP
Experimental: The physical interaction between the native ACBP and GABAARγ2 peptides was examined by standard immunoprecipitation (IP) and immunoblotting protocols. In detail, liver protein extracts (500 μg) were immunoprecipitated on protein A/G-Sepharose beads (Merck Millipore, Burlington, MA, USA, #GE17-0618-01) coated with (1× 2× 4×) either GABAARγ2 wild type (WT) or mutated (F77I) eicosapeptide (Biosynth ltd) or its negative control (PBS). Each IP reaction was incubated overnight (4 °C) in a rotation chamber followed by three consecutive rounds of PBS washing the next day. Each washing round included a PBS resuspension of the pellet and a re-centrifugation (12,000 × g, 4 °C). Finally, beads were resuspended in 20 μL of NUPAGE 4× buffer (Life Technologies, CA, USA, #NP0008), heated at 100 °C (10 min), followed by standard immunoblotting for the ACBP protein (Abcam #ab231910).
Fig. 5 Biophysical and biochemical detection of a direct interaction between ACBP/DBI and the GABAARγ2-derived eicosapeptide. A Schematic representation of the GABAAR and the GABAARγ2-derived eicosapeptides. B Surface plasmon resonance kinetics of ACBP-GABAARγ2-derived eicosapeptide (WT and F77I) interactions. Representative ACBP immunoblot (C) from control- or GABAARγ2-immunoprecipitated samples. Anti-GABAARγ2 immunoprecipitation (IP) assay was employed in order to validate the GABAARγ2 WT peptide interaction with native ACBP (in murine hepatic protein extracts), and quantification (D). […] For statistical analysis p value (indicating statistical comparisons with the control condition) was calculated by Mann–Whitney U-test. E Anti-GABAARγ2 IP assay to address the physical interaction between GABAARγ2 peptides and murine hepatic ACBP protein. Interaction was validated using an increasing gradient of biotinylated WT/F77I peptides that were bound on the surface of streptavidin beads as part of the IP assay. […]

[2] = system: primary mouse hepatocytes; assay: WST-8 conversion (metabolic activation) by primary hepatocytes; assay type: cell-based; settings: Acbp/Dbi f/f and KO, increasing concentrations of RecACBP/DBI, 4 h (text: within 4.5 h), n = 3
Experimental: After filtration through a 100 µm cell strainer and successive centrifugations at 30 × g, 4 °C for 5 min, cells were resuspended in the following attachment culture medium: DMEM/F12, 20 mM HEPES (pH = 7.4), 5 mM glucose, 10% FBS (Sigma), 5 mg/mL BSA, 100 U/mL penicillin, and 100 μg/mL streptomycin. The cells were then purified by density gradient centrifugation using an isotonic solution of Percoll (GE Healthcare Bio-Sciences AB, Uppsala, Sweden). Cell viability was assessed using Trypan blue exclusion. Cells were plated in a 96-well plate overnight to facilitate cell attachment before proceeding with experiments.
as §1, with “Subsequently, the cells were incubated for 4.5 h at 37 °C to facilitate the conversion of WST-8 in response to cellular activity.” left out, “This measurement served as an indicator of WST-8 conversion, reflecting cellular metabolic activity.” left out
Fig. 6 Inhibition of the metabolic effects of ACBP/DBI on hepatocytes by the GABAARγ2-derived eicosapeptide. […] For statistical analysis p values are calculated by one-way ANOVA. […]

C57BL/6 mice = assay: Food intake after intravenous injection; assay type: in vivo, mouse; settings: i.v., 0.5 mg/kg, after 24 h starvation, cumulative food intake 30 min, n = 4 to 9
Experimental: Prior to experimentation, mice were subjected to 24 h starvation followed by individual housing and acclimatization in individual cages (2 h). Subsequently, mice were intravenously (i.v.) injected with recombinant ACBP/DBI protein (RecACBP/DBI) (total volume of 200 μL, 0.5 mg/kg body weight), either alone or in combination with GABAARγ2 peptides (5× molar excess). Cumulative food intake was then analyzed as previously described. Prior to i.v. injections, the RecACBP mixes were pre-incubated (16 h, 4 °C) with GABAARγ2 peptides.

[3] = target: T1, recombinant murine ACBP/DBI (acyl-CoA binding protein / diazepam binding inhibitor) (mouse, UniProt P31786 1-87, biotin (site not stated; for the SPR chip)); assay: SPR; Biacore 2000; biotinylated ACBP/DBI immobilised on SA chip (1600 RU); peptides injected at 10 µM and 100 µM in HBS-EP, 30 µL/min, 25 °C; association 4 min, dissociation 5 min; control surface streptavidin alone; settings: both partners purified
T1 construct: Biotinylated for immobilisation on the SA chip; in the food intake experiment murine RecACBP/DBI was injected and no biotin is mentioned; also called RecACBP/DBI; recombinant ACBP/DBI; source: recombinant, from the Institute of Psychiatry and Neuroscience of Paris, France
T1 sequence (looked up): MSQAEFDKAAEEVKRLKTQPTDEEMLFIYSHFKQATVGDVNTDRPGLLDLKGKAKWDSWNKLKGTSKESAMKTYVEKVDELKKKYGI

O=CC[C@@H](O)[C@H](O)[C@H](O)CO [2-deoxy-D-glucose, reference compound]
effect on RecACBP/DBI-stimulated WST-8 conversion (Huh-7 cells; pre-treated with 2-deoxy-D-glucose 300 µM for 2 h): abolished

Biotinylated GABAARγ2-EP-WT: Biotinylated GABAARγ2-EP-WT immobilized on streptavidin-precoated beads (INMEYTIDIFFAQTWYDRRL; also: biotin, site not given here)
pull down of endogenous/native ACBP/DBI, in words [1]: absorbed endogenous ACBP/DBI protein from mouse liver extracts

C=C(C)[C@H]1Cc2c(ccc3c2O[C@@H]2COc4cc(OC)c(OC)cc4[C@@H]2C3=O)O1 [rotenone, reference compound]
effect on RecACBP/DBI-stimulated WST-8 conversion (Huh-7 cells; pre-treated with rotenone 0.5 µM for 2 h): abolished

B1: recombinant ACBP/DBI protein: recombinant acyl-CoA binding protein encoded by diazepam binding inhibitor (protein)
chain: T1 sequence (looked up)
modifications: biotin (site not stated; for the SPR chip)
WST-8 conversion, metabolic activation by the substance (Huh-7 cells; shUNR and shACBP/DBI, increasing concentrations of RecACBP/DBI, 4 h (text: within 4.5 h), n = 8–9): increase in the capacity to reduce
WST-8 conversion, metabolic activation by the substance [2]: increase in the capacity to reduce
food intake / appetite, effect of recombinant ACBP/DBI (C57BL/6 mice): induced an increase in appetite

B2: GABAARγ2-derived eicosapeptide, wild type (GABAARγ2-EP-WT) (peptide)
peptide: INMEYTIDIFFAQTWYDRRL
notes: GABAA receptor gamma-2 subunit (GABRG2), 20-mer with F77 in position 10; 100% identical in zebrafish, chicken, mouse and human; Stocked in DMSO at 1 mg/mL; used without a stated biotin in SPR and in the functional tests; also called GABAARγ2 WT peptide; WT EP; source: synthetic peptide (Biosynth ltd)
binding result [3]: binds
